Consider two molecules from publication PMC9636964 (Proceedings of the National Academy of Sciences of the …, 2022).

In general, Kd refers to a measure of binding affinity in units of concentration.

For test [1], the target named is T1, G3BP1 NTF2L (nuclear transport factor 2-like domain of Ras-GTPase-activating protein binding protein (human, UniProt Q13283 1-139)). Briefly: ITC. (ITC needs no label: the signal is the heat of the interaction.)
In test [2] the target is T1, G3BP1 NTF2L (nuclear transport factor …). The experiment in a line: NMR titration.

T1 sequence (Q13283 1-139): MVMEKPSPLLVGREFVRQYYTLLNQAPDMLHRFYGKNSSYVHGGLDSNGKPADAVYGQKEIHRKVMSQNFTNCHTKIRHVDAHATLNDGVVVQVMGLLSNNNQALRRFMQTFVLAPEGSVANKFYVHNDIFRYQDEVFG

In the case of VAQADPLVRRQRVQDLMAQMQGPYNFIQDSMLDFENQTLD [Caprin-1(347-386) peptide], the Kd in test [1] turned out to be 1300 nM.

B1: Caprin-1(330-432) (domain or fragment)
chain: QPQAASPSVPEPHSLTPVAQADPLVRRQRVQDLMAQMQGPYNFIQDSMLDFENQTLDPAIVSAQPMNPTQNMDMPQLVCPPVHSESRLAQPNQVPVQPEATQV
modifications: 15N-labeled
In the case of B1, the binding result in test [2] was “binds”.
